In US20180214568A1 (US Dept. of Health and Human Services, published 2018):

B1: m900 IgG1 (antibody, V domains shown)
VH: not shown
VL: EIVLTQSPATLSLSPGERATLSCRASQSVSSYLAWYQQKPGQAPRLLIYDASNRATGIPARFSGSGSGTDFTLTISSVQAEDVGVYYCQQYHGTPTFGQGTKVEIKR
B2: m906 IgG1 (antibody, V domains shown)
VH: EVQLVQSGAEVKKPGSSVKVSCKASGGTFTGYYMHWVRQAPGQGLEWMGWINPNSGGTNYAQKFQGRVTMTRDTSISTAYMELSRLRSDDTAVYYCARDLSSGYSGYFDYWGQGTLVTVSS
VL: DVVMTQSPLSLPVTPGEPASISCRSSQSLLHSNGYNFLDWYLQKPGQSPQLLIYLGSNRASGVPDRFSGSGSGTDFTLKISRVEADDVGVYYCMQSLQTPWTFGHGTKVEIKR

Molecular target: T1, mouse CD56 (mouse, UniProt P13595 20-711, limits assumed)
T1 construct: the construct is not described
Assay: ELISA on coated mouse CD56 ectodomain, IgG titrated, OD405
Method: Protein was coated on ELISA plate wells at 50 ng/well in PBS at 4° C. overnight. After blocking of unbound surface with 2% non-fat dried milk in PBST, serially diluted antibody solutions were added, and incubated for 2 hours at 37° C. The bound human antibodies were detected with goat anti-human Fc specific IgG conjugated with horseradish peroxidase.

T1 sequence (P13595 20-711 limits assumed): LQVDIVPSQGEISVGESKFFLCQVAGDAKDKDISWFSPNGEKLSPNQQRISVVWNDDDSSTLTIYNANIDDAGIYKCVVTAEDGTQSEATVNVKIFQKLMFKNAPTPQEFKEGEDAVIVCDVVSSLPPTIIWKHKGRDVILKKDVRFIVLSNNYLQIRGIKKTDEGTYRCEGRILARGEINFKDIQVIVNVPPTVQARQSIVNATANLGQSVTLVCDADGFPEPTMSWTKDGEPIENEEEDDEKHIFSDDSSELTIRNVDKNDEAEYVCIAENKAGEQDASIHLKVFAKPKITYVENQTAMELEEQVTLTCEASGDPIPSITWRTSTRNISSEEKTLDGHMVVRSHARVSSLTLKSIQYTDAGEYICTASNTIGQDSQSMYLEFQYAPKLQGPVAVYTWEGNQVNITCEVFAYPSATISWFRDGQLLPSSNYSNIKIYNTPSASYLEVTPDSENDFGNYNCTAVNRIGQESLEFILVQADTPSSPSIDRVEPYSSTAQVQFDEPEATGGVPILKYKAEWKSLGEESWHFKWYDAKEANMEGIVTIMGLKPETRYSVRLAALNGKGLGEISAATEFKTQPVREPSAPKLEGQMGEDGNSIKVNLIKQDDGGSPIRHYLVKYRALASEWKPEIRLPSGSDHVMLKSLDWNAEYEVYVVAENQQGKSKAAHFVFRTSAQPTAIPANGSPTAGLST

Binder	binding result	EC50 (read off the curve) [nM]
B1	no binding (tested: 1000 nM)	–
B2	–	~0.08
